Literature values in publication PMC7314768.

Legend:
[1] = target: Cys145 (UniProt position 3385, FLNGSCGSVGF)
[2] = target: His41 (UniProt position 3281, VYCPRHVICTA)

## 3C-like main protease (3CL Mpro, 3CLpro, nsp5) of SARS coronavirus (Severe acute respiratory syndrome coronavirus (SARS-CoV))
[1]
  pKa: 8.0 ± 0.3
[2]
  pKa: 6.3 ± 0.1
